{"source": "patent US20250011471A1", "about": "(published 2025)", "binders": {"B1": {"name": "BsAb10 (bispecific antibody)", "chain 1": "EVQLVESGGGLVQPGGSLRLSCAASGFTFTSNWISWVRQAPGKGLEWVAEIDPYDGATDYADSVKGRFTISADTSKNTAYLQMNSLRAEDTAVYYCATGTDVMDYWGQGTLVTVSS", "chain 2": "DIQMTQSPSSLSASVGDRVTITCRASQDVSTAVAWYQQKPGKAPKLLIYSASFLYSGVPSRFSGSGSGTDFTLTISSLQPEDFATYYCQQSYTTPPTFGQGTKVEIK", "chain 3": "QVQLKQSGPGLVQPSQSLSVACTVSDFSLTTYGVHWVRQSPGKGLEWLGVIWSGGSTDYNAAFISRLTISKDNSKSQVFFKMNSLQTTDTAIYYCARDYGSTYVDAIDYWGQGTSVTVSS", "chain 4": "DIVLTQSPTSLAVSLGQRATISCRASESVESYGNRYMTWYQQKPGQPPKLLIYRAANLQSGIPARFSGSGSRTDFTLTIDPVEADDVATYYCQQSNEDPWTFGGGTKVEIK"}, "B2": {"name": "BsAb9 (bispecific antibody)", "chain 1": "B1 chain 1", "chain 2": "B1 chain 2", "chain 3": "EVKFLESGGGLVQPGGSLRLSCAVSGIDFSRYWMSWVRQAPGKGLEWIGEISPDSSTINYTPSLKDKFVISRDNAKNTLYLQMSKVRSADTALYYCARPSPALDYWGQGTLVTVSA", "chain 4": "DIVMTQSPATLSVTPGDRVSLSCRASQSISDYVYWYQQKSHESPRLLIIYASQSISGIPSRFSGSGSGSDFTLSINSVEPEDVGVYYCQNGHNFPYTFGGGTKLEIK"}}, "key": {"[1]": {"target": "T1, human KLB/human FGFR1c complex on HEK293 cells (human, UniProt Q86Z14 53-1044; P11362 22-822)", "T1 construct": "both receptors coexpressed on the same cells; Also used for L6 and COS7 cells transfected with both receptors (COS7: SNAP-tagged FGFR1c); also called FGFR1c/KLB complex", "assay": "radiolabeled ligand cell binding assay on stable HEK293 cells, iodinated against unlabeled protein"}, "[2]": {"target": "T2, mouse KLB (mouse, UniProt Q99N32 53-990)", "T2 construct": "KLB cDNA in pRK vector, transiently expressed on HEK293T cells for FACS", "T2 sequence": "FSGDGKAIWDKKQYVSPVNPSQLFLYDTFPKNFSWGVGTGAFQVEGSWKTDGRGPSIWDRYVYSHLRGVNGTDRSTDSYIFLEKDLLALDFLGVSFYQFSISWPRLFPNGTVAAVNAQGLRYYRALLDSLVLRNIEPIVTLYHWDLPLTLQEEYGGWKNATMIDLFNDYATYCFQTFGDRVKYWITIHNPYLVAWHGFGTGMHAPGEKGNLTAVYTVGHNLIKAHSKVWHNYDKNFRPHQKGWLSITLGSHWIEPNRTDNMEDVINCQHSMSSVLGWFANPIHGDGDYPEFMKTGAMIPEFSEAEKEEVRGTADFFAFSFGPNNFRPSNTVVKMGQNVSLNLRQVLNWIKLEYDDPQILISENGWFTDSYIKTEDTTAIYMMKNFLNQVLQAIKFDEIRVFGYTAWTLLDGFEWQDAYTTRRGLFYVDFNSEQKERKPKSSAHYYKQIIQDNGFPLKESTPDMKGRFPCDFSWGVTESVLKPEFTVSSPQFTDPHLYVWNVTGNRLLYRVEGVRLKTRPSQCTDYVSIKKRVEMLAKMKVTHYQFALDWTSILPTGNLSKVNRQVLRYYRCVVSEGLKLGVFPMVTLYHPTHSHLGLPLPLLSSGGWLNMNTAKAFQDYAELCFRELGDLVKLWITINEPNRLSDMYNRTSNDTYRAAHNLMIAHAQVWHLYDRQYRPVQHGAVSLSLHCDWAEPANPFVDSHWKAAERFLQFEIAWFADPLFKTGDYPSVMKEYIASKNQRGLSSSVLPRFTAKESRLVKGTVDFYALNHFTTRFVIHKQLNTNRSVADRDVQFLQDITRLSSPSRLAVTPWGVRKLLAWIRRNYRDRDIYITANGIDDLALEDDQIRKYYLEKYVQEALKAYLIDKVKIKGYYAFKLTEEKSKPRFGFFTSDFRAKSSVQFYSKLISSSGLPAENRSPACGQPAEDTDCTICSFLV", "assay": "radiolabeled ligand cell binding assay on stable HEK293 cells, iodinated against unlabeled protein"}, "[3]": {"target": "T3, human KLB on cells (human, UniProt Q86Z14 53-1044)", "T3 construct": "also called hKLB; beta-Klotho", "assay": "radiolabeled ligand cell binding assay on stable HEK293 cells, iodinated against unlabeled protein"}, "[4]": {"target": "T4, human FGFR1c on cells (human, UniProt P11362 22-822)", "T4 construct": "HEK293 cells expressing FGFR1c without KLB; also called hFGFR1c", "T4 sequence (P11362 other isoform, or with tags, fused parts or gaps limits assumed)": "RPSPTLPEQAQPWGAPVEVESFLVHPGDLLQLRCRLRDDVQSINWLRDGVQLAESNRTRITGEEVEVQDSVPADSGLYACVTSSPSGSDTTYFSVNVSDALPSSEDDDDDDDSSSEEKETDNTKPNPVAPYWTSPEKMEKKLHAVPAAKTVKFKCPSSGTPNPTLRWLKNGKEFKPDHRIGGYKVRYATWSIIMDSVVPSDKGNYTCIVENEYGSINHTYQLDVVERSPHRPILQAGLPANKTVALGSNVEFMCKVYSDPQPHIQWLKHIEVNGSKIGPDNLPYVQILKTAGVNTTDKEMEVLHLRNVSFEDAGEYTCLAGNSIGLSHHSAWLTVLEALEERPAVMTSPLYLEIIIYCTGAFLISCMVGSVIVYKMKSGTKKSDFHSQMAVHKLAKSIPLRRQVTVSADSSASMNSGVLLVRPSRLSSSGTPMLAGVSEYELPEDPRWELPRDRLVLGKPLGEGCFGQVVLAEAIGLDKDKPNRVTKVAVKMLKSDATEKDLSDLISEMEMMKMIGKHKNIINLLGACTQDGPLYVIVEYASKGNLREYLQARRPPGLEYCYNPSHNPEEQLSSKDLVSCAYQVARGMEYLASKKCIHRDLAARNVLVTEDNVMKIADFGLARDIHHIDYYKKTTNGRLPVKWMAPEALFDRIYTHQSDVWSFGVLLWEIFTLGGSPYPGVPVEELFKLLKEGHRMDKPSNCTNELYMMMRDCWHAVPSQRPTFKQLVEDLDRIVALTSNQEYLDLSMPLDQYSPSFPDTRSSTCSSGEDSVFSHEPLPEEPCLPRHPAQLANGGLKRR", "assay": "radiolabeled ligand cell binding assay on stable HEK293 cells, iodinated against unlabeled protein"}, "[5]": {"target": "T4, human FGFR1c on cells", "assay": "radiolabel ligand assay on cells expressing only FGFR1c; could not be determined reliably"}, "[6]": {"target": "T1, human KLB/human FGFR1c complex on …", "assay": "cell-based or functional assay"}}, "data": [{"binder": "B1", "values": [{"measurement": "Kd", "setting": "[1]", "value": 2.3, "unit": "nM"}, {"measurement": "Kd", "setting": "[2]", "value": 15.5, "unit": "nM"}, {"measurement": "Kd", "setting": "[3]", "value": 6.6, "unit": "nM"}, {"measurement": "Kd", "setting": "[4]", "value": 300, "unit": "nM"}, {"measurement": "Kd", "setting": "[5]", "value": "> 300", "unit": "nM"}, {"measurement": "EC50 in GAL-ELK1 assay in HEK293 cells", "setting": "[6]", "value": 3.2, "unit": "nM"}]}, {"binder": "B2", "values": [{"measurement": "Kd", "setting": "[1]", "value": 2.2, "unit": "nM"}, {"measurement": "Kd", "setting": "[3]", "value": 9.8, "unit": "nM"}, {"measurement": "Kd", "setting": "[4]", "value": 300, "unit": "nM"}]}]}
